Test results as given in US20080267971A1 (published 2008).

T1: Mouse/Human chimeric Ang-2 with the human StuI-TfiI fragment (mouse/human chimera, UniProt O35608 19-496)
T1 construct: also called Stu-Tfil 310-400
T1 chain: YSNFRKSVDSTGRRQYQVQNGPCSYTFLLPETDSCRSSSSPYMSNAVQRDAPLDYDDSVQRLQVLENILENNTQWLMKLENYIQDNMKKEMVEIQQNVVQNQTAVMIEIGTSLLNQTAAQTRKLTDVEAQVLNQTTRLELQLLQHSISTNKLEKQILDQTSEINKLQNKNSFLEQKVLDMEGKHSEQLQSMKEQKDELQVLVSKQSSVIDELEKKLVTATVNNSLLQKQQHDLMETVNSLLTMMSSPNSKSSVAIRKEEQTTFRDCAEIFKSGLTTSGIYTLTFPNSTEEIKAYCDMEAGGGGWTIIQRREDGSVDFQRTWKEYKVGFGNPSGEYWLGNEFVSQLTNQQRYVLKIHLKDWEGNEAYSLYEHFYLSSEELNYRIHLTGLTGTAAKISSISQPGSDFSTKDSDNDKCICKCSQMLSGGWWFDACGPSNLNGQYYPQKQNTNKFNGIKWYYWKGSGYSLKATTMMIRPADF

T2: human Ang-2 H375Q (human, UniProt O15123 19-496)
T2 sequence: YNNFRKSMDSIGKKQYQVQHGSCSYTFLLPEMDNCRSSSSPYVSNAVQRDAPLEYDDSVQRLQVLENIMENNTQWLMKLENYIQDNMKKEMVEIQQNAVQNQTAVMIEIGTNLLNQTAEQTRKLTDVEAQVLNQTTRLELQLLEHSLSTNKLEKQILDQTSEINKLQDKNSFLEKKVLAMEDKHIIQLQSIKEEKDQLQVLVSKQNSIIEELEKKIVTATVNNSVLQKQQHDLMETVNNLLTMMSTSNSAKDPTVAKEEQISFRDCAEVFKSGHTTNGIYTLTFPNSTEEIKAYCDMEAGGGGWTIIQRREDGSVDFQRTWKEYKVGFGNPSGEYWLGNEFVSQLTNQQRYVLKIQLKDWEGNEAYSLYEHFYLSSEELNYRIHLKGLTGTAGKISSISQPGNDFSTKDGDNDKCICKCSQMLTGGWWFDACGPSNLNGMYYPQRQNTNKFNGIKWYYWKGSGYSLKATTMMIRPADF

T3: human Angiopoietin-1 (human, UniProt Q15389 20-498, limits assumed)
T3 construct: Bought recombinant protein (R&D Systems 293-AN-025/CF) or supernatant of transfected 293F cells; also called Ang-1; recombinant Ang-1
T3 sequence: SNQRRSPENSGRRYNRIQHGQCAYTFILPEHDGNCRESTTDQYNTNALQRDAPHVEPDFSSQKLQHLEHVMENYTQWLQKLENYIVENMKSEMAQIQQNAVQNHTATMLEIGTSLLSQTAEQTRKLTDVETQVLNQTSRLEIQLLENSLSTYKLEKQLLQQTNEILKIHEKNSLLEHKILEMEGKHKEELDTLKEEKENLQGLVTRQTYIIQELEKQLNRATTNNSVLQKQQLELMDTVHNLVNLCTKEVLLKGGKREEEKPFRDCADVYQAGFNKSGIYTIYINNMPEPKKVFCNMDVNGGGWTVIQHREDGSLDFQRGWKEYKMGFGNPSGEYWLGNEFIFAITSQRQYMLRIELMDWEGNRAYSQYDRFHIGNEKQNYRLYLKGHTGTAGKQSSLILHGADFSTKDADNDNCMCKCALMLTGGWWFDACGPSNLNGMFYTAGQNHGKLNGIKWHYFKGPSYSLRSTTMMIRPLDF

T4: human Angiopoietin-2 (human, UniProt O15123 19-496)
T4 construct: Mostly bought recombinant protein (R&D Systems 623-AM/CF, 623-AN; biotinylated BT623) or supernatant of transfected 293F cells; also called Ang-2; rhAng-2
T4 sequence: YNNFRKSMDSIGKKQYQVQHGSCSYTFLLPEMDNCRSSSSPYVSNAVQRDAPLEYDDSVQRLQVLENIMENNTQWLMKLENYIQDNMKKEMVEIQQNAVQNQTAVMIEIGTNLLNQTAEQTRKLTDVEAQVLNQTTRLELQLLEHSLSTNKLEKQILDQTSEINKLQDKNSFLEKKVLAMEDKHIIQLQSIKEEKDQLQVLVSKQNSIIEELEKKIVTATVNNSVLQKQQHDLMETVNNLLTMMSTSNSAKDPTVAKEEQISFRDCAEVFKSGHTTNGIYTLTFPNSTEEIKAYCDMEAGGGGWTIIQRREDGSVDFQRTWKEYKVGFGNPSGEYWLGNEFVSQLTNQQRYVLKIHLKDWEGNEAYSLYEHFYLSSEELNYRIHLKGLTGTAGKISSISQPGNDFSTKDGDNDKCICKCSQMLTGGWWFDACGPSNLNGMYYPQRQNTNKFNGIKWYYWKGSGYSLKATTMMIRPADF


Assays:
[1] = molecular target: T1, Mouse/Human chimeric Ang-2 with the …; assay: ELISA
human Ang-2 H375Q = molecular target: T2, human Ang-2 H375Q; assay: ELISA
human Angiopoietin-1 = molecular target: T3, human Angiopoietin-1; assay: capture ELISA
Protocol: The binding of the top 27 human monoclonal antibodies was detected with a HRP-conjugated goat anti-human antibody, followed by colorimetric horseradish peroxidase substrate (Enhanced K-Blue TMB substrate Neogen Corporation). The absorbance of each well of the ELISA plates was measured at 450 nm on a microplate autoreader.

human Angiopoietin-2 [2] = molecular target: T4, human Angiopoietin-2; assay: Biacore, mAb captured
Protocol: (§1) The label-free surface plasmon resonance (SPR), or Biacore, was utilized to measure the antibody affinity to the antigen. For this purpose, a high-density goat anti-human antibody surface over a CM5 Biacore chip was prepared using routine amine coupling. All the purified mAbs were diluted to approximately 8 μg/ml in HBS-P running buffer containing 100 μg/ml BSA and 10 mg/mL carboxymethyldextran. Each mAb was captured on a separate surface using a 42-second contact time, and a 5-minute wash for stabilization of the mAb baseline.
(§2) Data were fit globally to a 1:1 interaction model to determine the binding kinetics.

human Angiopoietin-2 [3] = molecular target: T4, human Angiopoietin-2; assay: Biacore; kd held constant (*)
Protocol: as §1, §2

human Angiopoietin-2 [4] = molecular target: T4, human Angiopoietin-2; assay: inhibition of rhAng-2 binding to its receptor

Binder	% of binding to human Ang-2 [1] [%]	% of binding to human Ang-2 (human Ang-2 H375Q) [%]	binding result (human Angiopoietin-1)	Kd (human Angiopoietin-2 [2]) [nM]	kon (human Angiopoietin-2 [2]) [M⁻¹ s⁻¹]	koff (human Angiopoietin-2 [3]) [s⁻¹]	OD650 in inhibition assay (human Angiopoietin-2 [4]) [OD650]
mAb 5.56.1 (antibody, V domains shown, Human hybridoma IgG (XenoMouse); also called x5.56) VH: QVQLVESGGGVVQPGRSLRLSCAASGFTFSSYGMHWVRQAPGKGLEWVAVIWYDGSNKYYADSVKGRFTISRDNSKNTLYLQMNSLRAEDTAVYYCAREDNWNFYFDYWGQGTLVTVSS VL: DIQMTQSPSSLSASVGDRVTITCRASQGISYYLAWYQQKPGKVPKLLIYAASTLQSGVPSRFSGSGSGTDFTLTISSLQPEDVATYYCQKYNSAPFTFGPGTKVDIKR	100	100	no binding	≤ 0.052	190000	≤ 1e-05	0.0863
mAb 5.28.1 (antibody, V domains shown, Human hybridoma IgG (XenoMouse); also called x5.28) VH: EVQLVESGGIVVQPGGSLRLSCAASGFTFDDYTMHWVRQTPGKGLEWVSLISWDGGSTYYADSVKGRFTISRDNSKNSLYLQMNSLRTEDTALYYCAKDIDIAVAGTGFDHWGQGTLVTVSS VL: EIVMTQSPATLSVSPGERATLSCRASQSVTSNLAWYQQKPGQAPRLLIYGALIRATGIPARFSGSGSGTEFTLTISSLQSEDFAVYYCQQYNNWPFTFGPGTKVDIKR	100	100	no binding	≤ 0.04	250000	≤ 1e-05	0.0821
mAb 5.83.1 (antibody, V domains shown, Human hybridoma IgG (XenoMouse); also called x5.83) VH: not shown VL: EIVMTQSPATLSVSPGERATLSCRASQSLISNLAWYQQKPGQAPRLLIFGASTRATGIPARFSGSGSGTEFTLTISSLQSEDFAVYYCHQYNNWWTFGQGTKVEIKR	86	100	no binding	≤ 0.147	68000	≤ 1e-05	0.0484
mAb 5.13.1 (antibody, V domains shown, Human hybridoma IgG (XenoMouse); also called x5.13) VH: EVQLVESGGGLVQPGGSLRLSCAASGFTFSSYWMSWVRQAPGKGLEWVANIKQDGSEKYYVDSVKGRFTISRDNAKNSLYLQMNSLRAEDTAVYYCARDPGIAVAGPFDYWGQGTLVTVSS VL: EIVMTQSPATLSVSPGERATLSCRASQSVSSNLAWYQQKPGQAPRLLIYGASTRATGIPARFSGSGSGTEFTLTISSLQSEDFAVYYCQQYNHWWTFGQGTKVEIKR	27	100	no binding	≤ 0.047	210000	≤ 1e-05	0.0744
mAb 5.108.1 (antibody, V domains shown, Human hybridoma IgG (XenoMouse); also called x5.108) VH: QVQLVESGGGVVQPGRSLRLSCAASGFTFSSYGMHWVRQAPGKGLEWVAVIWYDGSNKYYADSVKGRFTISRDNSKNTLYLQMNSLRAEDTAMYYCARELALWGQGTLVTVSS VL: EIVMTQSPATLSVSPGERATLSCRASQSVSSYLAWYQQKPGQAPRLLIYGAFTRATGIPARFRGSGSGPEFTLTISSLQSEDFAVYYCQQYSHWWTFGQGTKVEIKR	36	100	no binding	≤ 0.031	320000	≤ 1e-05	0.0688

Other lines, results leading:

% of binding to human Ang-2 [1] [%]	% of binding to human Ang-2 (human Ang-2 H375Q) [%]	binding result (human Angiopoietin-1)	Kd (human Angiopoietin-2 [2]) [nM]	kon (human Angiopoietin-2 [2]) [M⁻¹ s⁻¹]	koff (human Angiopoietin-2 [3]) [s⁻¹]	OD650 in inhibition assay (human Angiopoietin-2 [4]) [OD650]	Binder
100	100	–	≤ 0.75	13000	–	0.0627	mAb 5.52.1 (antibody, V domains shown, Human hybridoma IgG (XenoMouse); the line 5.52 has entries of its own (347, 349; light chain L2) that differ from the clone 5.52.1 (L5); also called x5.52) VH: QVQLVESGGGVVQPGRSLRLSCAASGFTFSSYGMHWVRQAPGKGLEWVAVRWYDESNKYYADSVKGRFTISRDNSKNTLYLQMNSLRAEDTAVYYCARDPFETGTTFDYWGQGTLVTVSS VL: DIQMTQSPSSVSASVGDRVTITCRASQGISSWLAWYQQKPGKAPKLLIYAVSSLESGVPSRFSGSGSGTDFTLTISSLQPEDFATYYCQQALTFGGGTKVEIKR
100	100	no binding	≤ 0.029	340000	≤ 1e-05	0.0663	mAb 5.35.1 (antibody, V domains shown, Human hybridoma IgG (XenoMouse); also called x5.35) VH: EVQLVESGGGVVRPGGSLRLSCTTSGFTFDDYGMSWVRQAPGKGLEWVSGINWNGGSTVYADSVKGRFTISRDSAKNSLYLQMNSLRAEDTALYHCARNKQWLWYFDLWGRGTLVTVSS VL: EIVMTQSPATLSVSPGERATLSCRASQSVSSNLAWYQQKPGQAPRLLIYGASTRATGIPARFSGSGSGTEFTLTISSLQSEDFAVYYCEQYNNWPLTFGGGTKVEIKR
25	100	no binding	≤ 0.043	230000	≤ 1e-05	0.0519	mAb 5.39.1 (antibody, V domains shown, Human hybridoma IgG (XenoMouse); also called x5.39) VH: QVQLVQSGAEVTKPGASVKVSCKASGYTFTAYHMYWVRQAPGQGLEWMGWINPNSGGTNYAQKFQGRVTMTRDTSISTAYMELSRLRSDDSPVYYCARDQGIAAAGPFDYWGQGTLVTVSS VL: EIVMTQSPATLSVSPGDRATLSCRASQSVSSNFAWYQQKPGQAPRLLIYGSSTRATGIPARFSGSGSGTEFTLTISSLQSEDFAVYYCQQYHYWWTFGQGTKVEFKR
30	100	no binding	≤ 0.065	150000	≤ 1e-05	0.065	mAb 5.62.1 (antibody, V domains shown, Human hybridoma IgG (XenoMouse); also called x5.62) VH: EVQLVESGGGLVQPGGSLRLSCAASGFTFSSYWMSWVRQAPGKGLEWVANIKQDGSEKYYVDSVKGRFTISRDNAKNSLYLQMNSLRAEDTAVYYCARDPGIAVAGPFDYWGQGTLVTVSS VL: EIVMTQSPATLSVSPGERATLSCRASQSVSSNLAWYQQKPGQAPRLLIYGAFTRATGIPARFSGSGSGTEFTLTISSLQSEDFAVYYCQQYNHWWTFGQGTKVGIKR
77	100	no binding	≤ 0.066	150000	≤ 1e-05	0.044	mAb 5.54.1 (antibody, V domains shown, Human hybridoma IgG (XenoMouse); also called x5.54) VH: not shown VL: EIVMTQSPATLSVSPGERATLSCRASQSLISNLAWYQQKPGQAPRLLIFGASTRATGIPARFSGSGSGTEFTLTISSLQSEDFAIYYCHQYNNWWTFGQGTKVEIKR
